Source: article PMC4460183, “Catalytic and hydrodynamic properties of styrene monooxygenases from Rhodococcus opacus 1CP are modulated by cofactor binding” (AMB Express, 2015)
“And” between values parts separate entries of the source, which are not always exact repeats. Equal values may be shown once. One block for each molecule: values may come before it.

Legend:
StyA = target: T1, StyA (Rhodococcus opacus, UniProt A0A076JVU4); assay: HPLC of phenyl vinyl sulfoxide formed; format: biochemical; conditions: StyB of P. fluorescens ST (threefold excess), FAD, NADH regeneration by formate dehydrogenase, catalase
T1 construct: full length, 427 residues, 46,580 Da calculated; apo form purified; monomer; P. fluorescens ST StyB as coupling reductase in oxygenase assays

StyA1 = target: T2, StyA1 (Rhodococcus opacus, UniProt C7ACG0); assay: analytical gel filtration, oligomer shift; format: binding; conditions: 12.7 µM FAD, no dithionite; 10 mM Tris-HCl pH 7.2, 500 mM NaCl, 22 °C
T2 construct: N-terminal His10 tag kept, E. coli BL21; apo form purified; monomer-dimer, dimer with reduced FAD; oxygenase assays with P. fluorescens ST StyB as coupling reductase

[1] = target: StyA1 styrene monooxygenase from Rhodococcus opacus 1CP (Rhodococcus opacus 1CP) (UniProt C7ACG0); assay: SEC; analytical gel filtration, Superdex 200 HR 10/30, 22°C, 10 mM Tris-HCl pH 7.2, 500 mM NaCl; reduced holoenzyme, 12.7 µM FAD and 1 mM sodium dithionite, anaerobic buffer
[2] = target: StyA1 styrene monooxygenase from Rhodococcus opacus 1CP (Rhodococcus opacus 1CP) (UniProt C7ACG0); assay: SEC; analytical gel filtration, Superdex 200 HR 10/30, 22°C, 10 mM Tris-HCl pH 7.2, 500 mM NaCl; oxidized holoenzyme, 12.7 µM FAD in buffer and sample
[3] = target: StyA1 styrene monooxygenase from Rhodococcus opacus 1CP (Rhodococcus opacus 1CP) (UniProt C7ACG0); assay: SEC; analytical gel filtration, Superdex 200 HR 10/30, 22°C, 0.6 mL/min, 10 mM Tris-HCl pH 7.2, 500 mM NaCl; 100 µL of protein (1.95 mg/mL StyA1, 2.17 mg/mL StyA2B, 11.45 mg/mL StyA); apo-enzyme, no FAD
[4] = target: StyA2B self-sufficient styrene monooxygenase from Rhodococcus opacus 1CP (Rhodococcus opacus 1CP) (UniProt C7ACG1); assay: SEC; analytical gel filtration, Superdex 200 HR 10/30, 22°C, 10 mM Tris-HCl pH 7.2, 500 mM NaCl; reduced holoenzyme, 12.7 µM FAD and 1 mM sodium dithionite, anaerobic buffer
[5] = target: StyA2B self-sufficient styrene monooxygenase from Rhodococcus opacus 1CP (Rhodococcus opacus 1CP) (UniProt C7ACG1); assay: SEC; analytical gel filtration, Superdex 200 HR 10/30, 22°C, 10 mM Tris-HCl pH 7.2, 500 mM NaCl; oxidized holoenzyme, 12.7 µM FAD in buffer and sample
[6] = target: StyA2B self-sufficient styrene monooxygenase from Rhodococcus opacus 1CP (Rhodococcus opacus 1CP) (UniProt C7ACG1); assay: SEC; analytical gel filtration, Superdex 200 HR 10/30, 22°C, 0.6 mL/min, 10 mM Tris-HCl pH 7.2, 500 mM NaCl; 100 µL of protein (1.95 mg/mL StyA1, 2.17 mg/mL StyA2B, 11.45 mg/mL StyA); apo-enzyme, no FAD
[7] = target: the molecule itself; assay: SEC; analytical gel filtration, Superdex 200 HR 10/30, 22°C, 10 mM Tris-HCl pH 7.2, 500 mM NaCl; oxidized holoenzyme, 12.7 µM FAD in buffer and sample
[8] = target: the molecule itself; assay: SEC; analytical gel filtration, Superdex 200 HR 10/30, 22°C, 0.6 mL/min, 10 mM Tris-HCl pH 7.2, 500 mM NaCl; 100 µL of protein (1.95 mg/mL StyA1, 2.17 mg/mL StyA2B, 11.45 mg/mL StyA); apo-enzyme, no FAD
purified protein [9] = substrate: Cc1cc2nc3c(=O)[nH]c(=O)nc-3n(C[C@H](O)[C@H](O)[C@H](O)COP(=O)(O)OP(=O)(O)OC[C@H]3O[C@@H](n4cnc5c(N)ncnc54)[C@H](O)[C@@H]3O)c2cc1C; assay: purified protein; format: biochemical, Pseudomonas fluorescens; conditions: NADH in excess, 8 mM Tris-HCl pH 7.5, 30 °C
purified protein [10] = substrate: NC(=O)C1=CN([C@@H]2O[C@H](COP(=O)(O)OP(=O)(O)OC[C@H]3O[C@@H](n4cnc5c(N)ncnc54)[C@H](O)[C@@H]3O)[C@@H](O)[C@H]2O)C=CC1; assay: purified protein; format: biochemical, Pseudomonas fluorescens; conditions: FAD in excess, 8 mM Tris-HCl pH 7.5, 30 °C
[11] = target: the molecule itself; assay: SEC; data not shown; StyB in the presence of the cofactor FAD; method taken from the section on quaternary structure (analytical gel filtration), not given
[12] = substrate: Cc1cc2nc3c(=O)[nH]c(=O)nc-3n(C[C@H](O)[C@H](O)[C@H](O)COP(=O)(O)OP(=O)(O)OC[C@H]3O[C@@H](n4cnc5c(N)ncnc54)[C@H](O)[C@@H]3O)c2cc1C; assay: NADH consumption, spectrophotometric, Michaelis-Menten fit; format: biochemical, Rhodococcus opacus; conditions: NADH in excess, 8 mM Tris-HCl pH 7.5, 30 °C, read at 320 nm, apparent constant
Excerpt: (§1) NADH consumption, spectrophotometric, Michaelis-Menten fit on StyB-1CP (StyB from Rhodococcus opacus 1CP)

[13] = substrate: NC(=O)C1=CN([C@@H]2O[C@H](COP(=O)(O)OP(=O)(O)OC[C@H]3O[C@@H](n4cnc5c(N)ncnc54)[C@H](O)[C@@H]3O)[C@@H](O)[C@H]2O)C=CC1; assay: as above; format: biochemical, Rhodococcus opacus; conditions: FAD in excess, 8 mM Tris-HCl pH 7.5, 30 °C, read at 320 nm, apparent constant
Excerpt: as §1

T2 sequence (C7ACG0 entry or part of it): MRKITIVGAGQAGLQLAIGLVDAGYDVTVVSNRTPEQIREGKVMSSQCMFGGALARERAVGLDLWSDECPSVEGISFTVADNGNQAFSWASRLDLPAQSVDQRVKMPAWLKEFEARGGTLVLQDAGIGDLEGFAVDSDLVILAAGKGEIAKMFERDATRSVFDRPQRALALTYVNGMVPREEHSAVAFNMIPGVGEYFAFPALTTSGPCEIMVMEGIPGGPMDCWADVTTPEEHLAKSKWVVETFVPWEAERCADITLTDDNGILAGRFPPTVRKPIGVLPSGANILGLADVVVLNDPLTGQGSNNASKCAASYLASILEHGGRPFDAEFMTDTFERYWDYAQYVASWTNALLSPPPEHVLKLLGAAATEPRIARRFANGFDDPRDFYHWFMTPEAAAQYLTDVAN

Molecule: C=CSc1ccccc1 [phenyl vinyl sulfide]
HPLC of phenyl vinyl sulfoxide formed (StyA): All three SMO isoforms were found to convert this substrate

Molecule: Cc1cc2nc3c(=O)[nH]c(=O)nc-3n(C[C@H](O)[C@H](O)[C@H](O)COP(=O)(O)OP(=O)(O)OC[C@H]3O[C@@H](n4cnc5c(N)ncnc54)[C@H](O)[C@@H]3O)c2cc1C [FAD]
analytical gel filtration, oligomer shift (StyA1): For holo-StyA1, the equilibrium shifted towards the dimeric form

stoichiometry N [1]: 2
stoichiometry N [2]: 2
stoichiometry N [3]: 2
Molecule: StyA1 styrene monooxygenase from Rhodococcus opacus 1CP (from UniProt C7ACG0 1-406) (enzyme)

stoichiometry N [4]: 2
stoichiometry N [5]: 2
stoichiometry N [6]: 2
Molecule: StyA2B self-sufficient styrene monooxygenase from Rhodococcus opacus 1CP (from UniProt C7ACG1 1-573) (enzyme)

B1: StyA styrene monooxygenase from Rhodococcus opacus 1CP (styABCD cluster) (enzyme, UniProt A0A076JVU4 1-426, looked up)
chain: MSKRIAIVGAGTAGLHLGLYLNEKGIDATIFTDRRPEEYANIRLLNTVAHHSVTIDREDALGIDHWPNDGYFGHYYYVGIPGMPIRSYGDLAKPSRAVDYRILQPQLMRDFEERGGKIEYRPIRVEDLTVLSDDYDLVVIGTGKGGLGTLFARDEQSSPFTEPQRQLCVGIFKGIAPAETRAVTFCISPGAGEMIEIPTVTFSGDATALVFENHIGSDLEVLAHTRYEDDPRAFLDLMIEKLKQHYPITAERLDEKEFDVANSHLDILQGGVTPTVRHGHVKLDNGKLAVLLGDAHATVDPVLGQGGNMASYAAHVLGEEIAGNEVYDELFCERVDARRAGRVLGATRWTNFMLSNLKELPNHFVEFLGRVMMDRQLADRFTDNFNYPEKQWDIFSSPENMVAWIEANETGAEETERPFAQTGAQS
notes: StyA of the styABCD cluster, Rhodococcus opacus 1CP, 427 amino acid residues, calculated mass 46,580 Da; amplified from genomic DNA with printed primers that hold the start codon (NdeI CATATG) and the stop codon (TCA in the reverse primer); Apparent subunit mass 50 kDa including the His-tag (SDS-PAGE); also called holo-StyA; source: E. coli BL21, purified (HisTrap FF IMAC)
stoichiometry N [7]: 2
stoichiometry N [8]: 2 and 4

B2: StyB-ST (StyB from P. fluorescens ST) (Pseudomonas fluorescens) (protein)
chain: MTLKKDVAVDIDSTCFRQAVALFATGIAVLSAETEEGEVHGMTVNSFTSISLDPPTVMVSLKSGRMHELLTRGGRFGVSLLGESQKVFSAFFSKRVMDDTPSPAFTIQAGLPTLRDAMAWFECEVESTVQVHDHTLFIARVSACGTPEANAPQPLLFFASRYHGKPLPLN
notes: full length; E. coli BL21
Km (purified protein [9]): 2.6 ± 0.4 µM
kcat (purified protein [9]): 8.7 ± 0.3 s⁻¹
kcat/Km (purified protein [9]): 3.35e+06 M⁻¹ s⁻¹
Km (purified protein [10]): 18.9 ± 1.0 µM
kcat (purified protein [10]): 8.8 ± 0.1 s⁻¹
kcat/Km (purified protein [10]): 466000 M⁻¹ s⁻¹

B3: StyB flavin reductase from Rhodococcus opacus 1CP (enzyme, UniProt A0A076K0M4 1-177, looked up)
chain: MTRAAEAPPAPEVLSAPVEVAADSTQFRNSVALFATGIAVVTMQDGEGGVHGATINSFTSISLDPPTVMISLKPGYAHELISKSGWYGVSVLSKTQQEHSRYFCGTRDSDWHPQFVAGENVPTLFGSLARFECKVIDTITVNDHTLFLARVARCESEDGSPLMFFASTYHQPALGES
notes: StyB, FAD reductase of the styABCD cluster, Rhodococcus opacus 1CP, 178 amino acid residues, calculated mass 19,053 Da; also called StyB-1CP; source: E. coli BL21, purified (HisTrap FF IMAC), concentrated in the presence of 10 µM FAD
stoichiometry N [11]: 2
Km [12]: 108.3 ± 18.3 µM
kcat [12]: 32.9 ± 2.3 s⁻¹
kcat/Km [12]: 304000 M⁻¹ s⁻¹
Km [13]: 59.3 ± 4.2 µM
kcat [13]: 26.9 ± 0.6 s⁻¹
kcat/Km [13]: 454000 M⁻¹ s⁻¹
